The nature of the series: soluble fraction after stress (log2 fold change); higher = more stays soluble; pooled small domains, quantitative proteomics. As to conditions: stress: 50 degC. The method in brief: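 Each library was heated to 50°C as a stress step. The libraries, made up of small protein domains, were pooled and analysed at high throughput by quantitative proteomics. The reported value is the base-two logarithm of the fold change in each protein's soluble amount after stress, taken as a measure of aggregation propensity. The higher the value, the more protein stays in solution.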

Turning to “HMGDPEYFKKQLGDFMDRFNITSEDIKNLSIAGAINRMMNNAEGEDKTVLSKLLETVNKSGVGNLPAKTI”, the “soluble fraction (log2)” value came to 0.0622.

For the sequence “HMVSFAEQASDWLAHFDRLGDVGPDTTLTDLTARDAEFSAWVNEGIHHRVAFLETLAAWHRTER”, the “soluble fraction (log2)” value is -0.774.

Regarding “HMSEMVIPEDFLAALETNPQAKAFYATLNRQNQYAVYHRLQTAKRPETRAKRIADFVAQLAAGKRF”, the “soluble fraction (log2)” value was -0.355.

As for “HMGDAIPVPDVSGFSEDQAMNNLRKVGLRPKATYVADDNTAKGYVTGTSPAKNIEVAPDSEVIVYVSSGP”, the “soluble fraction (log2)” value was found to be 0.238. Next, “HMPLNAHIVGRGKRDRRGKRGAPYSIVLELGRDENGKRIQKWYSGYPTKAAAEEDKIRMLRELQTGEYVPQ”: -0.309; “HMISKYLRIESDILSAIREGRLKPGDKLPGQSEMRRIYNVSAITVRKAFTDLINDGYLVGVRGSGTYVAKR”: -0.703; “HMLKEGQYSPNHFHWHKMEDIINRGGGTLLIRVYNSLPDEEIDRESDVTVHMDGVTRTVPAGTQLRLE”: -0.229. The same measure for “HMKPDDDMLLKILTKLFIQKQFVINSKDIFQYILKNTNRTYENIINIVNRLDTLSIEKKRQLTIPLIKEI”: -0.457. With “HMQEISQEEALATVLKDLSLTEADLKDLQITREEDKYKILFSKGQTAYDVLVSAKDGQLLQSKQETI”, the “soluble fraction (log2)” value was -0.165. Next, “HMQVTDTGTIEGEIDKVLAANPDRVTEYHDGKEKILGWFVGQVMQTTKGKANPQMVNQLFLEKLK”: 0.142. Next, “HMQLASILDDIPGIGKKRKENLLTHFGSFSKIQSADIDALAEVPGISRDLAETIHTYLKTHQ”: 0.0967; “HMQEPVHFTRRERQVLSLILSGQATAEIAKTLGIANATVTTYKKSLYSKSGTNSLSRLLIWAMVRR”: -0.27; “HMKNNAIAPDQVVSLLKNEVNYNDDGRIEILDNNKNIRYNSKGELLTIEERVNEFLDANPHFRK”: -0.119.

Regarding “HMRLYTQDVAVLNRDVIQGEVITSDMVTTVNVHKRTVPTGALNLSEIPGNVAKFNIPASIPITASMVTK”, the “soluble fraction (log2)” value amounted to 0.0171. With “HMRMSPRERKIYQFIENHPGTKSGEMAEKLGIPLPTIKRLLSDMVASKLLQKHGTGAGTNYSIEE”, the “soluble fraction (log2)” value stood at 0.201. Consider “HMSGTFIGGELVKPGEPLTPMQRAAITMGLQMGNTYSPEIMEKYNNAGGSPSKEEFENYQKNKS”, for which the “soluble fraction (log2)” value was 0.101. For “HMKNKVTVPKVEGMDKEEAIQALNEVGLGYKAVMQSSDSVAEGKVISQGTAAGKKVDKNTQIIITVSGG”, the “soluble fraction (log2)” value came out at 0.00222. In the case of “HMGGQKTREAIFDLIMTNSKITSAQIAEILGIHRSGVARHLKKLQEEGLIKREGPDNGGQWIVIK”, the “soluble fraction (log2)” value was -0.422. As for “HMVKVEVKPNVLQWVIKRMDNFDRLKDQFPNIDKWINQESQPTLKQLEKLAKMTAVPLGYFFLPNPPEEK”, the “soluble fraction (log2)” value is -0.183. The same measure for “HMTSMTHLGRHPDSEISLDDISVSRRHAEIERQGHEYVLRDSGSLNGTYVNQQRVDSVVLQQGDEIL”: 0.234; for “HMASVLTGMLGRVTGELAPKGIVMVGNETWTAVSEDDSVIRIGEPVEVRSVEGLILTVFRRID”: -2.53; for “HMANYHDIAADLRSKINHGFYEEEKKLPKQSELAADYQTSRVTIQKALNILQMEGIIYGKKGTGTFIRDSY”: -0.214. The same measure for “HMIGHIGSAVMLNAKLRPRLPLLHVLALTQSLGERLSAAEAQPEVYRWSDPGQSRVIAEFEGGRLTRWRLE”: -2.09. For “HMLHMKAALGELMSIPGMRSELAGTLFDRGYTSLAQLRAATLDDLERVNGLERADARRIHDFLRKS”, the “soluble fraction (log2)” value was -0.0753. The same measure for “HMETSVDEVYKKIQAYIEAEDKHKPLSDQKLAEQLQSDGLKVSRRTVAKYREKLNIASSSKRKR”: 0.358; for “HMKLEKKWIEAVEKYRRYVLSTGIKHVQKPIEFENFRLGQWYADVRQSYRRGTLSKEKLLEIREINPDFPN”: -0.276; for “HMETVRHFRLDWSQAADRLDKVLASLMNDVSRARIQEWIRLGAVSVNGEILTDVRAKVAGGDAIDVTPQTA”: -0.0893.

In the case of “HMSLYGGYEIDIIKEEVVDAGIKLLRRRVIVADQRGISVYEGKPTFASDDQVLIKEGQYQIDKLG”, the “soluble fraction (log2)” value was -2.63. Next, “HMVEDFSEVLLQYIREQGGAIALNDKTDAGVIYDTFGVSKKTFKKAVGDLYKKRLIVLGDEGIRLA”: -0.619. Next, “HMVIVMRKDADAASIEKVVSEVKSRGFMPHVSEGESRTLIGAIGPAPTEELREHFAGLAGVETVVRITK”: 0.113; “HMGASLVIVPGAGFLRVSASSQTRLDVYSITGMRVRSVDFEPGTTEIELPAGFYIAGGRKFFV”: -1.4; “HMNETNKMPNLVNQTDSSAIAQLNAMELGLKITTKEESSETVLAGYVIRTEPAADTELTKNQAVTVYVS”: 0.00616. Turning to “HMPTNVYSIIGKEGIVLESIDNLNSTGKVKVNGELWSAISDSNIEKGETIKVLSVNGVKLKVEKVN”, the “soluble fraction (log2)” value was found to be 0.0885.

For the sequence “HMPVSLHEQIQQARIRAEQNVEGISLLLQVNPKYYEQIEAGDVIPDQDLLKRISSLFGWNYHEMLHREKSS”, the “soluble fraction (log2)” value is -0.239. Take “HMSSDEDELESIIKRVFADNPIELERLQNGEDKLIKFFMGLVMRQTKGKYPPKIIIDLLNKS”: the “soluble fraction (log2)” value is -0.411. Next, “HMLSVRNRMSDVLKSLDDGEFHRFESLFNLEEGRLGVVVTFLAMLELAKEMLVEIVQNESLGPIYLKSR”: -0.0774; “HMNNLLEDIKARLMAQAEAGGHIDTETELAEHFGVTRYRIRKELDLLSQMGLLRRQPKNGIEVLTV”: -0.106. The same measure for “HMNEFGIPDKKLQDIETRVNSMSLEQLNAARSMLIDEQEALNSSTGSASSGRLKEIAAELSTIQKALIAIA”: 0.163. On to “HMAKNIEVPNLVGSTISVARNDLKQLGLHVIVRDSVWSEDKKIDTILEQFPEPGKKLKPEGVVQVVVSI”, for which the “soluble fraction (log2)” value was -0.408.

Turning to “HMYVPEVPVPDLLGRSEEEAKNLIEDLGLVFKVSKREYSKEYDEGHVMEQSVDEGAKVKENYPVEVVISR”, the “soluble fraction (log2)” value was 0.196. Next, “HMERPSLDQVLAHAKALGIAPARFVAYADGRWGTGWRLSPHGRARAWEELDRHRNDPLGYRDKLDVALQSG”: -0.0254; “HMEVPVQYIKFKIPENHFWAKKKVADIILPPETLLVLLQRGSDKMIPDGETVLLPEDTLVLIAKAPG”: -0.0836; “HMTLTPEQQAARRSEIVDIALRLIAENGFQKTSMREIADLAKMGKSSLYDFFKTKDEIAVYAMEKK”: -0.283.

On to “HMDVLKVFSHNVRRYRTQLGLSQETVAFRTGLHRTYISAVERGKRSISLDNIQKIADALEVETYLLFI”, for which the “soluble fraction (log2)” value was -1.72.

“HMEVVVPDFEKIYIRDLDKFVEGHNVRYEIVDSIYNLEKDKGTVVDQDPEPGSKVKHGRVIYLTVNAML”: the “soluble fraction (log2)” value is -0.207. In the case of “HMAYSEEDRRRVREELLTTALKLMSTQGIQHTTVEQVYRSVGISRSFFYAFFPTKEDLIVEAL”, the “soluble fraction (log2)” value worked out at 0.117. Next, “HMNTPTLLLYGGKDHSVPEAGIRHLRAHLSANDRGEYRFYPNAPHLLLQSRQWQQVSQDISQWLAMT”: 0.141. Turning to “HMQPQYSVLFSNIEEKDGGSIITLLQQGNVPYKVENGGTTILVPANRANELRLTLAAQGLPK”, the “soluble fraction (log2)” value is -0.0124. In the case of “HMKKASLSTVEKKLMKQNYSNDTMENRLARVESYMFGTVFSSDDTQTRIDRISSAYNAQKSS”, the “soluble fraction (log2)” value is 0.142. The same measure for “HMDRVSEITLTRLRDYAADGQVRTATLTHRTNVVTGTLRDGRRFSAGVPPMYGDELTTFLLDNGVRVDSDN”: -0.167. Next, “HMIDENILSEEIKHYIETNNYAKDDKLPSERSLASLFNVSRALVRKSLISLVDVNYLYVKDKSGYYING”: -0.0735. Consider “HMGFPAPFDGKAVAELRRRLGLTRRGLAEELSVSPSTVDKWEQGDVALRSPALTILKILWHQGLKALPP”, for which the “soluble fraction (log2)” value is -1.52.

In the case of “HMTEKQYIYSIGDRVNIGTDEFEIVNINEKEVSIADVTFPMLVKQISYEEFDRKVKENPFNDHLII”, the “soluble fraction (log2)” value is 0.0642. In the case of “HMINLDGIGEKISRLRKEQGVTIRELSEYTGYSVGFLSNLETGKNSPTVESLQRVAEALRTDIIEILTK”, the “soluble fraction (log2)” value was -0.312. The same measure for “HMSTTALLEKMVRYIRTLPVISQVVLSLHYYRGMELREIASELDITESRASQLHTTAVLGIRDLLSSY”: -3.33. Next, “HMEKGWYKLGQDSYYVDDDGKIHKGWLELDGKKYYFDQEGKMVTGTVNIDGKDYTFNEKGELYVS”: 0.183; “HMDASKVKIEDLGLSTRTENALVAASIRTAGGLARKSEMDLLSTDGLGEKGITEIKKALSDLGLELK”: 0.285. Next, “HMSADLVYLRKRLQDAIAQLPENMRTAYTLFQIANRSIREISELTGASESLVKVRIHRAKGKLQKQLEDLK”: -1.33. For the sequence “HMKTEVNITPGIIDWIERYVQTDKISSSMTEDFQHWKSGTKKPTFNQVEAFSKAINVPLGYFFLKTPPAE”, the “soluble fraction (log2)” value is -0.302.

For “HMAIWAVFYKNEPFNLKSFNSLTSYPGPKYKKTSFSNPGHALNLAKKLNLTFGTEDFQVVKLTQGTIV”, the “soluble fraction (log2)” value is -2.61.

Take “HMPDRQKDIQNWQQIAETLLNMLDKYVAALETGKTGLAEAYKAIFAETLRRLDDRLDPEQFLP”: the “soluble fraction (log2)” value is -1.54.

Take “HMYHPGFEALREVARQGSFIKAARALGISGPAVSKQIKSLEARLNLVLLHRTTRAVTLTEAGQRLTEILD”: the “soluble fraction (log2)” value is -2.07. The same measure for “HMIELDRTNLLGVFGPKSRPYALLMLSNGEMIKISIGDQFFGWRVYGIDEKSIQVQNGTKQEILRIP”: -2.12; for “HMELTDSLTENAKKLYSVLTTEPRHIDDLSEEAKLSSADTLAALTELELYSLVALSEGKHYYK”: 0.00954.

As for “HMSPILTPDQATKAYGKDGVLYIHSNKERTIYIYDVTGRTVRILEAVEGENQINGLEKGIYFLEGQKVAV”, the “soluble fraction (log2)” value is -0.233. Next, “HMNKSYTVPDVRGMTVEEAQEAEGVKDIFTVHVQGTRKTDEYQPGQIVEQDPIAGRTRKSNFVIEVYVAE”: 0.0819; “HMEVFTPSEANVAEAREILAAMATAKANGEGATVYKGRLVDIASIKQAEVIVRQSEMIQSAH”: 0.408. As to “HMSPIKAGDLVKITGTKYYRGQTIPSWVKAKNWFVHSVSGDRAVINKSEDGKNAIMSPVKVSNLALVT”, the “soluble fraction (log2)” value was -0.0334.

Regarding “HMDAPKPDIGMSTDQIRSSLGQPGSQTRLETGGGRIYELWIYLYPDGKELQIYFDNAKVVKMEALS”, the “soluble fraction (log2)” value is -0.613.
